{"source": "patent US6307026", "about": "“Humanized antibodies directed against A33 antigen” (Celltech Limited, dated 2001)", "binders": {"B1": {"name": "chimeric A33(γ1) (antibody, V domains shown)", "VH": "EVKLVESGGGLVKPGGSLKLSCAASGFAFSTYDMSWVRQTPEKRLEWVATISSGGSYTYYLDSVKGRFTISRDSARNTLYLQMSSLRSEDTALYYCAPTTVVPFAYWGQGTLVTVSA", "VL": "DIVMTQSQKFMSTSVGDRVSITCKASQNVRTVVAWYQQKPGQSPKTLIYLASNRHTGVPDRFTGSGSGTDFTLTISNVQSEDLADYFCLQHWSYPLTFGSGTKLEVKR"}, "B2": {"name": "murine monoclonal antibody A33 (antibody, V domains shown)", "VH": "B1 VH", "VL": "B1 VL", "modifications": "FITC or fluorescein label on the antibody where it is used as labelled competitor or in the Scatchard assay (about 1.5 molecules of fluorescein per antibody molecule)"}, "B3": {"name": "mA33 Fab (Fab, V domains shown)", "VH": "B1 VH", "VL": "B1 VL"}}, "key": {"A33 antigen [1]": {"target": "T1, A33 antigen (human, UniProt Q99795)", "T1 sequence": "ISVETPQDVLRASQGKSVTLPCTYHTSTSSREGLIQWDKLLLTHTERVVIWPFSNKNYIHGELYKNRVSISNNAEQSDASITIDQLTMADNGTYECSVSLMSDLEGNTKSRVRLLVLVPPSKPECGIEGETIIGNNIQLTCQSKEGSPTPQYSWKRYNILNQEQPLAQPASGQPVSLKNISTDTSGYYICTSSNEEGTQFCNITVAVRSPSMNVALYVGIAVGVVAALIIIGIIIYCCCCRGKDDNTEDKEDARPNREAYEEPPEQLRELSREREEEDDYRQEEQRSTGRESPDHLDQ", "test": "direct binding to ASPC-1 cells, FITC labelled anti-human IgG, FACScan", "experimental": "In the direct binding assay ASPC-1 or Colo205 cells were incubated at […] for 1 h. in the presence of various amounts of murine, chimeric or humanised A33, or non-specific antibody controls.\nTo confirm that the sequences obtained could combine to bind to the A33 antigen the chimeric expression plasmids pRO107 and pRO108 were transiently co-expressed in CHO-L761h cells (Cockett et al., 1990) at 200 mL scale. […] The binding of the antibody to the cells was measured using FITC labelled anti-human IgG and the bound fluorescence was detected in a FACScan analyser."}, "A33 antigen [2]": {"target": "T1, A33 antigen", "test": "fluorescein-labelled antibody titrated on SW1222 cells, FACScan, Scatchard plot", "experimental": "The potency of hA33 (γ1) was compared to that of murine A33 by binding to cells of the human colerectal cancer cell line SW 1222. Fluorescently labelled conjugates of purified humanised and murine A33 were prepared to give approximately 1.5 molecules of fluorescein per antibody molecule. SW1222 cells (2.8×10⁵ per tube) were incubated with the fluorescent antibodies titrated in the range 3.57 µg/ml to 12 ng/ml in PBS with 5% foetal calf serum and 0.2% sodium azide on ice for 1.5 hours. After washing, antibody bound to the surface of the cells was detected by a FACscan (Becton Dickinson) as a fluorescent signal which was converted to numbers of antibody molecules bound per cell by calibration with fluorescent microbead standards."}, "A33 antigen [3]": {"target": "T1, A33 antigen", "test": "competition assays of Example 1 (FITC-labelled murine A33 on cells, FACScan); reference"}}, "data": [{"binder": "B1", "values": [{"measurement": "binding result", "setting": "A33 antigen [1]", "result": "binds"}]}, {"binder": "B2", "values": [{"measurement": "binding result", "setting": "A33 antigen [2]", "result": "binds"}]}, {"binder": "B3", "values": [{"measurement": "binding result", "setting": "A33 antigen [3]", "result": "binds"}]}]}
